Data as given in US20210355192A1 (YALE UNIVERSITY, published 2021).

Target: the molecule itself
Experiment: gel filtration with multi-angle light scattering (self-association)
Protocol: Multi-angle Light Scattering. PFcR and subdomains (1 mg/ml) in 20 mM Tris-HCl buffer (pH 7.4) containing 0.2M NaCl was applied at 0.5 ml per minute to Superdex200 16/600 (GE, Boston, Mass.) gel filtration column in-line with DAWN HELEOS II light scattering instrument (Wyatt Technology, Santa Barbra, Calif.; laser wavelength 658 nm). Data collection and analysis used Astra software (Wyatt technology).

B1: His-tagged consensus filaggrin subdomain SD150 (other)
chain: SEDSDTQSVSAHGQAGPHQQSHQESARGRSGERSGRSGSFLYQVSTHEQSESAHGRTGPSTGGRQGSHHEQARDSSRHSASQEGQDTIRGHPGSSRGGRQGSHHEQSVDRSGHSGSHHSHTTSQGRSDASRGQSGSRSASRQTRNEEQSG
notes: His-tag kept (thrombin degraded the protein); also called long linker subdomain; not shown: 19-residue N-terminal tag (hexa-his, thrombin site, spacer residues)
B1: no binding (tested: 1 mg/ml).

B2: His-tagged consensus filaggrin subdomain SD67 (other)
chain: SEDSERWSGSASRNHHGSAQEQSRDGSRHPRSHHEDRAGHGHSADSSRQSGTRHAETSSGGQAASSH
notes: His-tag kept (thrombin degraded the protein); also called short linker subdomain; not shown: 19-residue N-terminal tag (hexa-his, thrombin site, spacer residues)
B2: no binding (tested: 1 mg/ml).
